Here are results for 75 variants from article doi:10.1101/2021.08.20.457142.

To fix the notation:
B1: MKK7 D-site peptide (second D-site) / JNK1 alpha1 (MAPK8 isoform 1) L198A, full length (parent complex)
chain 1: SQPQRPRPTLQLPLANEAFEQP
chain 2: MSRSKRDNNFYSVEIGDSTFTVLKRYQNLKPIGSGAQGIVCAAYDAILERNVAIKKLSRPFQNQTHAKRAYRELVLMKCVNHKNIIGLLNVFTPQKSLEEFQDVYIVMELMDANLCQVIQMELDHERMSYLLYQMLCGIKHLHSAGIIHRDLKPSNIVVKSDCTLKILDFGLARTAGTSFMMTPYVVTRYYRAPEVIAGMGYKENVDLWSVGCIMGEMVCHKILFPGRDYIDQWNKVIEQLGTPCPEFMKKLQPTVRTYVENRPKYAGYSFEKLFPDVLFPADSEHNKLKASQARDLLSKMLVIDASKRISVDEALQHPYINVWYDPSEAEAPPPKIPDKQLDEREHTIEEWKELIYKEVMDLEERTKNGVIRGQPSPLAQVQQ

Variants of B1 are the subject of the assay.
Regarding chain 1 Q4A, chain 1 T9A, the screen value was 1.32 Z-score of the enrichment rate within one screen of 711 sequences.

On to chain 1 R7A, chain 1 Q11A, for which the screen value is 0.044 Z-score of the enrichment rate within one screen of 711 sequences.

Take chain 1 P3A, chain 1 Q4A: the screen value is 1.61 Z-score of the enrichment rate within one screen of 711 sequences.

Turning to chain 1 P3A, chain 1 L14A, the screen value is 0.559 Z-score of the enrichment rate within one screen of 711 sequences.

With chain 1 Q11A, chain 1 L12A, the screen value is -0.605 Z-score of the enrichment rate within one screen of 711 sequences.

As for chain 1 T9A, chain 1 N16A, the screen value is 0.774 Z-score of the enrichment rate within one screen of 711 sequences.

In the case of chain 1 P6A, chain 1 Q11A, the screen value was 1.17 Z-score of the enrichment rate within one screen of 711 sequences.

In the case of chain 1 P6A, chain 1 T9A, the screen value is 1.16 Z-score of the enrichment rate within one screen of 711 sequences.

As for chain 1 Q11A, chain 1 N16A, the screen value is 1.16 Z-score of the enrichment rate within one screen of 711 sequences.

As to chain 1 T9A, chain 1 L14A, the screen value is 0.13 Z-score of the enrichment rate within one screen of 711 sequences.

For chain 1 Q11K, the screen value is 1.58 Z-score of the enrichment rate within one screen of 711 sequences.

Take chain 1 Q11D: the screen value was 1.71 Z-score of the enrichment rate within one screen of 711 sequences.

Take chain 1 Q11M: the screen value is 1.43 Z-score of the enrichment rate within one screen of 711 sequences.

In the case of chain 1 Q11V, the screen value is 1.38 Z-score of the enrichment rate within one screen of 711 sequences.

For chain 1 Q11R, the screen value is 1.59 Z-score of the enrichment rate within one screen of 711 sequences.

Regarding chain 1 Q11L, the screen value is 1.67 Z-score of the enrichment rate within one screen of 711 sequences.

In the case of chain 1 L10Y, the screen value is -0.115 Z-score of the enrichment rate within one screen of 711 sequences.

With chain 1 L10I, the screen value is 0.256 Z-score of the enrichment rate within one screen of 711 sequences.

For the variant chain 1 L10E, the screen value was -0.301 Z-score of the enrichment rate within one screen of 711 sequences.

With chain 1 L10F, the screen value is 0.606 Z-score of the enrichment rate within one screen of 711 sequences.

As for chain 1 L10D, the screen value was -0.874 Z-score of the enrichment rate within one screen of 711 sequences.

With chain 1 L10H, the screen value was -0.321 Z-score of the enrichment rate within one screen of 711 sequences.

For chain 1 L10W, the screen value was -0.417 Z-score of the enrichment rate within one screen of 711 sequences.

For the variant chain 1 L10Q, the screen value was -0.301 Z-score of the enrichment rate within one screen of 711 sequences.

As to chain 1 L10K, the screen value is -0.134 Z-score of the enrichment rate within one screen of 711 sequences.

Consider chain 1 L10M, for which the screen value is 1.08 Z-score of the enrichment rate within one screen of 711 sequences.

Turning to chain 1 R5A, chain 1 N16A, the screen value was 0.479 Z-score of the enrichment rate within one screen of 711 sequences.

chain 1 R7A, chain 1 L10A: the screen value was -0.455 Z-score of the enrichment rate within one screen of 711 sequences.

Take chain 1 Q4A, chain 1 P6A: the screen value is 1.09 Z-score of the enrichment rate within one screen of 711 sequences.

As to chain 1 P13I, the screen value is 0.957 Z-score of the enrichment rate within one screen of 711 sequences.

As for chain 1 P13W, the screen value was 1.26 Z-score of the enrichment rate within one screen of 711 sequences.

In the case of chain 1 P13T, the screen value was 1.03 Z-score of the enrichment rate within one screen of 711 sequences.

Regarding chain 1 P13E, the screen value was 1.34 Z-score of the enrichment rate within one screen of 711 sequences.

For the variant chain 1 P13Y, the screen value was 1.41 Z-score of the enrichment rate within one screen of 711 sequences.

On to chain 1 P13R, for which the screen value was 1.24 Z-score of the enrichment rate within one screen of 711 sequences.

Regarding chain 1 P13A, the screen value was 1.14 Z-score of the enrichment rate within one screen of 711 sequences.

For chain 1 P13F, the screen value is 1.62 Z-score of the enrichment rate within one screen of 711 sequences.

Turning to chain 1 P13A, chain 1 L14A, the screen value was 0.556 Z-score of the enrichment rate within one screen of 711 sequences.

Consider chain 1 Q4W, for which the screen value is 1.2 Z-score of the enrichment rate within one screen of 711 sequences.

Regarding chain 1 Q4H, the screen value was 1.59 Z-score of the enrichment rate within one screen of 711 sequences.

Take chain 1 Q4G: the screen value was 1.26 Z-score of the enrichment rate within one screen of 711 sequences.

For chain 1 Q4N, the screen value was 1.28 Z-score of the enrichment rate within one screen of 711 sequences.

Consider chain 1 Q4A, for which the screen value is 1.48 Z-score of the enrichment rate within one screen of 711 sequences.

Consider chain 1 Q4E, for which the screen value was 1.4 Z-score of the enrichment rate within one screen of 711 sequences.

Consider chain 1 Q4T, for which the screen value is 1.45 Z-score of the enrichment rate within one screen of 711 sequences.

Regarding chain 1 Q4R, the screen value is 2 Z-score of the enrichment rate within one screen of 711 sequences.

For chain 1 Q4S, the screen value was 2.02 Z-score of the enrichment rate within one screen of 711 sequences.

As to chain 1 Q4M, the screen value is 1.12 Z-score of the enrichment rate within one screen of 711 sequences.

Take chain 1 T9V: the screen value is 1.12 Z-score of the enrichment rate within one screen of 711 sequences.

In the case of chain 1 T9K, the screen value was 1.65 Z-score of the enrichment rate within one screen of 711 sequences.

Regarding chain 1 T9A, the screen value is 0.998 Z-score of the enrichment rate within one screen of 711 sequences.

chain 1 T9P: the screen value was 0.775 Z-score of the enrichment rate within one screen of 711 sequences.

Take chain 1 T9R: the screen value was 1.59 Z-score of the enrichment rate within one screen of 711 sequences.

Turning to chain 1 T9D, the screen value is 0.933 Z-score of the enrichment rate within one screen of 711 sequences.

In the case of chain 1 T9S, the screen value was 1.4 Z-score of the enrichment rate within one screen of 711 sequences.

For chain 1 T9I, the screen value is 1.93 Z-score of the enrichment rate within one screen of 711 sequences.

Consider chain 1 T9N, for which the screen value was 1.85 Z-score of the enrichment rate within one screen of 711 sequences.

As to chain 1 T9G, the screen value is 0.628 Z-score of the enrichment rate within one screen of 711 sequences.

Turning to chain 1 P6E, the screen value is 1.2 Z-score of the enrichment rate within one screen of 711 sequences.

As for chain 1 P6W, the screen value was 1.02 Z-score of the enrichment rate within one screen of 711 sequences.

chain 1 P6D: the screen value was 0.975 Z-score of the enrichment rate within one screen of 711 sequences.

For the variant chain 1 P6G, the screen value was 0.655 Z-score of the enrichment rate within one screen of 711 sequences.

Turning to chain 1 P6I, the screen value is 1.35 Z-score of the enrichment rate within one screen of 711 sequences.

As for chain 1 P6R, the screen value is 1.25 Z-score of the enrichment rate within one screen of 711 sequences.

On to chain 1 P6S, for which the screen value was 0.764 Z-score of the enrichment rate within one screen of 711 sequences.

In the case of chain 1 L12Y, the screen value was -0.861 Z-score of the enrichment rate within one screen of 711 sequences.

With chain 1 L12R, the screen value is -0.521 Z-score of the enrichment rate within one screen of 711 sequences.

As to chain 1 L12S, the screen value is -0.194 Z-score of the enrichment rate within one screen of 711 sequences.

With chain 1 L12H, the screen value was -0.33 Z-score of the enrichment rate within one screen of 711 sequences.

chain 1 L12T: the screen value is -0.304 Z-score of the enrichment rate within one screen of 711 sequences.

Turning to chain 1 L12D, the screen value is -0.686 Z-score of the enrichment rate within one screen of 711 sequences.

As to chain 1 L12K, the screen value is -0.431 Z-score of the enrichment rate within one screen of 711 sequences.

For chain 1 L12W, the screen value was 0.774 Z-score of the enrichment rate within one screen of 711 sequences.

chain 1 L12F: the screen value was 0.226 Z-score of the enrichment rate within one screen of 711 sequences.

With chain 1 L12M, the screen value was 0.011 Z-score of the enrichment rate within one screen of 711 sequences.
